Measured values published in article PMC8293591, “Vibrio vulnificus induces the death of a major bacterial species in the mouse gut via cyclo-Phe-Pro” (Microbiome, 2021).

How the values were obtained:
ObgE (rObgE) = target: T1, ObgE (rObgE) (Phocaeicola vulgatus, UniProt A6L100); experiment: isothermal titration calorimetry; type: binding
T1 construct: gene obg; 45 kDa; nucleotide-free (alkaline phosphatase, gel filtration)
T1 sequence (A6L100 1-394): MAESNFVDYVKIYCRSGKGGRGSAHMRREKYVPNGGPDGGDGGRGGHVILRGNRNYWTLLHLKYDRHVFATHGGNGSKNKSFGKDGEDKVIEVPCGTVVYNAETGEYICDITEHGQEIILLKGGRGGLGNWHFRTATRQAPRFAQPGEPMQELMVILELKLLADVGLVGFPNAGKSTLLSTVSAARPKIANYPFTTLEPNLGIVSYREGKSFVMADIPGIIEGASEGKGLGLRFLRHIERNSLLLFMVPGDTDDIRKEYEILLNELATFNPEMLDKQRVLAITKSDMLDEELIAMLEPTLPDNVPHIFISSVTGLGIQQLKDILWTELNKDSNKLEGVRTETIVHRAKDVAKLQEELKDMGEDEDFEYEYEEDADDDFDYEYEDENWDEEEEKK

[1] = target: recombinant ObgE of Bacteroides vulgatus MGM001, nucleotide-free (Bacteroides vulgatus MGM001); experiment: ITC; MicroCal iTC200; nucleotide-free rObgE (40 μM) titrated with 400 μM cyclic dipeptide at 25 °C in 20 mM HEPES (pH 7.5), 150 mM NaCl, 5 mM MgCl2, 1 mM β-mercaptoethanol; single binding site model

Row | Molecule | Kd (ObgE (rObgE)) | Kd [1] | stoichiometry N [1]
1 | O=C1N[C@@H](Cc2ccccc2)C(=O)N2CCC[C@@H]12 [cFP] | 1800 ± 350 nM | – | –
2 | cyclo-(phenylalanine-proline) (peptide) | – | 1800 nM | 0.78
